Test results from patent EP2344531B1 (Danisco US Inc., dated 2014).
Substitutions are numbered along the chain they refer to. Numbers in names are those of the source. One block for each binder: values may come before it.

Columns and labels:
[1] = target: T1, TGFβ1 (transforming growth factor β1) (UniProt P01137 279-390); assay: BioVeris ECL competition assay with a labeled competitor; legend: ++ = IC50 about 10 - 50 µM
[2] = target: T2, TNFα (tumor necrosis factor α) (UniProt P01375 77-233); assay: as above
[3] = target: T3, VEGF (vascular endothelial growth factor) (UniProt P15692-4 27-191, limits assumed, biotin label (Example 5)); assay: as above
[4] = target: T2, TNFα (tumor necrosis factor α); assay: BioVeris ECL competition assay with a labeled competitor; legend: + = IC50 about 50 - 250 µM
[5] = target: T3, VEGF (vascular endothelial growth …); assay: BioVeris ECL competition assay with a labeled competitor; legend: +++ = IC50 about 2 - 10 µM
[6] = target: T2, TNFα (tumor necrosis factor α); assay: BioVeris ECL competition assay with a labeled competitor; negative control
[7] = target: T4, FGF-5 (fibroblast growth factor 5) (UniProt P12034 18-268, limits assumed); assay: BioVeris ECL competition assay with a labeled competitor; legend: ++ = IC50 about 10 - 50 µM
T4 sequence (looked up): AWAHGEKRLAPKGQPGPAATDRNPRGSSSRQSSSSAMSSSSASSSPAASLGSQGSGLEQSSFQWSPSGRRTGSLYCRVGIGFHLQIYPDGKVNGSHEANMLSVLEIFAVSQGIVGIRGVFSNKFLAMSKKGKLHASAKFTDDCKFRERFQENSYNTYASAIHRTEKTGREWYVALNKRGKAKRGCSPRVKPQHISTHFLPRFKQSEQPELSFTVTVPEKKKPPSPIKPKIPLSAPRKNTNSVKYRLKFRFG

[8] = target: T1, TGFβ1 (transforming growth factor β1); assay: BioVeris ECL competition assay with a labeled competitor; negative control

T3 sequence (P15692 other isoform, or with tags, fused parts or gaps limits assumed): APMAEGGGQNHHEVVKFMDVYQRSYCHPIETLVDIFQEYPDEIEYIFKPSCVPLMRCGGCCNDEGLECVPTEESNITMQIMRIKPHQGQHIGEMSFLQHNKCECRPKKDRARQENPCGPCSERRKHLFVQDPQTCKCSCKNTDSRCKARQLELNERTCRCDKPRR
T1 sequence (P01137 279-390 limits assumed): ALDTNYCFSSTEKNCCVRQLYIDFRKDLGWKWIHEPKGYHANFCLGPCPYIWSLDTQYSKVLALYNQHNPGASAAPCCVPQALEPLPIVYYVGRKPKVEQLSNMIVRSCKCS
T2 sequence (P01375 77-233 limits assumed): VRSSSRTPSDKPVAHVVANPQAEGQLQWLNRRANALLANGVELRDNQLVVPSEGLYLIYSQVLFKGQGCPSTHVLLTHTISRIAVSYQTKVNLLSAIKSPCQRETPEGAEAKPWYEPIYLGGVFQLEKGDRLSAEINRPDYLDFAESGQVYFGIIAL

B2: BBIt-TNF-T1 (BBIt-TNFα-T1-A13I-S25R-M27A-L29P-S31A-F50K-V52T, peptide RYWQDIP) (designed binder)
chain: DPDDESSKPCCDQCICTKSNPPQCRCRDARPNACHSACKSCACRYWQDIPCKCTDITDFCYEPCKPSE
IC50 [2]: 10 to 50 µM

B3: BBIt-AV-V5 (BBIt-VEGF-V5-A13I-S25R-M27A-L29P-S31A-F50K-V52T, peptide KPSSASS) (designed binder)
chain: B2 chain with R44K, Y45P, W46S, Q47S, D48A, I49S, P50S
IC50 [3]: 10 to 50 µM

B4: BBIt-TNF-T3 (BBIt-TNFα-T3-A13I-S25R-M27A-L29P-S31A-F50K-V52T, peptide DMIMVSI) (designed binder)
chain: B2 chain with R44D, Y45M, W46I, Q47M, D48V, I49S, P50I
notes: the listing entry must be checked
IC50 [4]: 50 to 250 µM

B5: BBIt-TNF-T2 (BBIt-TNFα-T2-A13I-S25R-M27A-L29P-S31A-F50K-V52T, peptide APEPILA) (designed binder)
chain: B2 chain with R44A, Y45P, W46E, Q47P, D48I, I49L, P50A
IC50 [4]: 50 to 250 µM

B8: BBIt-AV-V1 (BBIt-VEGF-V1-A13I-S25R-M27A-L29P-S31A-F50K-V52T, peptide SKHSQIT) (designed binder)
chain: B2 chain with R44S, Y45K, W46H, Q47S, D48Q, P50T
IC50 [6]: > 250 µM
IC50 [3]: 10 to 50 µM

B9: BBIt-AV-V2 (BBIt-VEGF-V2-A13I-S25R-M27A-L29P-S31A-F50K-V52T, peptide KTNPSGS) (designed binder)
chain: B2 chain with R44K, Y45T, W46N, Q47P, D48S, I49G, P50S
IC50 [5]: 2 to 10 µM

The next lines start with the values.

IC50 [1]: 10 to 50 µM
B1: PEN3-Q-BBIt-TGF (BBIt-A13I-L29P-F50T-V52A with the TGFβ1 binding peptide PEN3 PENINVLP) (designed binder)
chain: DPDDESSKPCCDQCICTKSNPPQCRCSDMRPNSCHSACKSCACPENINVLPCTCADITDFCYEPCKPSE
notes: also called PEN3-Q-BBIt-TGFβ1; BBIt-PEN3-Q-A13I-L29P-F50T-V52A

IC50 [3]: 10 to 50 µM
B6: BBIt-AV-V3 (BBIt-VEGF-V3-A13I-S25R-M27A-L29P-S31A-F50K-V52T, peptide RPTGHSL) (designed binder)
chain: B2 chain with Y45P, W46T, Q47G, D48H, I49S, P50L

IC50 [5]: 2 to 10 µM
B7: BBIt-AV-V6 (BBIt-VEGF-V6-A13I-S25R-M27A-L29P-S31A-F50K-V52T, peptide PVTKRVH) (designed binder)
chain: B2 chain with R44P, Y45V, W46T, Q47K, D48R, I49V, P50H

IC50 [5]: 2 to 10 µM
B10: BBIt-AV-V4 (BBIt-VEGF-V4-A13I-S25R-M27A-L29P-S31A-F50K-V52T, peptide KHSAKAE) (designed binder)
chain: B2 chain with R44K, Y45H, W46S, Q47A, D48K, I49A, P50E

IC50 [5]: 2 to 10 µM
B11: VegKD-Q (BBIt-A13I-S25K-L29P-V52K with the VEGF-binding peptide VegKD KYDLYWW) (designed binder)
chain: DPDDESSKPCCDQCICTKSNPPQCRCKDMRPNSCHSACKSCICKYDLYWWCFCKDITDFCYEPCKPSE

IC50 [7]: 10 to 50 µM
B12: MM007-Q-BBIt-FGF-5 (BBIt-A13I-L29P-F50T-V52A with the FGF-5 binding peptide MM007 RTQPYPL) (designed binder)
chain: DPDDESSKPCCDQCICTKSNPPQCRCSDMRPNSCHSACKSCACRTQPYPLCTCADITDFCYEPCKPSE
notes: also called BBIt-MM007-Q-A13I-L29P-F50T-V52A

IC50 [1]: 10 to 50 µM
B13: MM021W-Q-BBIt-TGF (BBIt-A13I-L29P-F50T-V52A with the TGFβ1 binding peptide MM021W KHNVDWL) (designed binder)
chain: B12 chain with R44K, T45H, Q46N, P47V, Y48D, P49W
notes: also called MM021W-Q-BBIt-TGFβ1; BBIt-MM021W-Q-A13I-L29P-F50T-V52A

IC50 [8]: > 250 µM
IC50 [7]: 10 to 50 µM
B14: FGFps2-Q-BBIt-FGF-5 (BBIt-A13I-L29P-F50T-V52A with the FGF-5 binding peptide FGFps2 TWIDSTP) (designed binder)
chain: B12 chain with R44T, T45W, Q46I, P47D, Y48S, P49T, L50P
notes: also called BBIt-FGFps2-Q-A13I-L29P-F50T-V52A
